# T1: biotinylated A93D-PNT domain (ETV6 residues 43-135, A93D, with Avitag) (human, UniProt P41212 43-135, A93D, biotin on the Avitag (~50 to 95% biotinylated))
# T1 construct: ETV6, human, residues 43-135; made from the V112E construct by introducing A93D and E112V; also called biotinylated A93D-PNT domain ligand; A93D-PNT domain ligand; source: E. coli BL21 (λDE3) co-transformed with pET21a-BirA, purified (Ni-NTA, thrombin cleavage); not shown: His6, N-terminal, cleaved; Avitag, N-terminal, kept
# T1 sequence (looked up): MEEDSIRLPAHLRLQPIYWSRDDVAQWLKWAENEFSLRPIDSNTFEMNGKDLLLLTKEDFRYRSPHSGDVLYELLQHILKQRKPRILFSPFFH
# Biological target: T1, biotinylated A93D-PNT domain (ETV6 …)
# Assay: SPR; biotinylated A93D-PNT domain ligand captured on streptavidin Sensor Chip SA, PNT domain analytes flowed; Biacore X100, 25 °C, HBS-EP+ (10 mM HEPES, 150 mM NaCl, 3 mM EDTA, 0.05% v/v Tween-20, pH 7.4); analyte 0.2-60 nM, re-run at 20-6000 nM if KD > 60 nM
# Details: both partners purified
# Method in brief: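 Biotinylated ETV6 PNT domain (residues 43-135, Avitag-biotinylated) was diluted to 50 μg/ml in HBS-EP+ and captured on a streptavidin Sensor Chip SA in a Biacore X100 at 25 °C. PNT domain analytes were flowed at 0.2, 2, 20, 40 and 60 nM, or re-run at 20-6000 nM when binding was weaker. Chips were regenerated with 0.2% SDS for 30 s. Association and dissociation rate constants and equilibrium dissociation constant came from the Biacore kinetics/affinity software wizard.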
Binder,Kd,koff,kon
"N90A-V112E-PNT domain (domain or fragment, human, UniProt P41212 40-125, looked up, ETV6 PNT domain, human; gene purchased commercially (Biomatik); source: E. coli BL21 (λDE3), purified (Ni-NTA, thrombin cleavage); not shown: His6, N-terminal, cleaved) ALRMEEDSIRLPAHLRLQPIYWSRDDVAQWLKWAENEFSLRPIDSNTFEMAGKALLLLTKEDFRYRSPHSGDELYELLQHILKQRK",480 nM,0.037 s⁻¹,78000 M⁻¹ s⁻¹
"R105A-V112E-PNT domain (domain or fragment, human, UniProt P41212 40-125, looked up, ETV6 PNT domain, human; source: E. coli BL21 (λDE3), purified (Ni-NTA, thrombin cleavage); not shown: His6, N-terminal, cleaved) ALRMEEDSIRLPAHLRLQPIYWSRDDVAQWLKWAENEFSLRPIDSNTFEMNGKALLLLTKEDFRYASPHSGDELYELLQHILKQRK",2340 nM,0.0054 s⁻¹,2300 M⁻¹ s⁻¹
"Y104A-V112E-PNT domain (domain or fragment, human, UniProt P41212 40-125, looked up, ETV6 PNT domain, human; source: E. coli BL21 (λDE3), purified (Ni-NTA, thrombin cleavage); not shown: His6, N-terminal, cleaved) ALRMEEDSIRLPAHLRLQPIYWSRDDVAQWLKWAENEFSLRPIDSNTFEMNGKALLLLTKEDFRARSPHSGDELYELLQHILKQRK",21 nM,0.015 s⁻¹,730000 M⁻¹ s⁻¹

# Binders with a lower Kd, results first:
Kd,koff,kon,Binder
9.9 nM,0.0034 s⁻¹,350000 M⁻¹ s⁻¹,"N85A-V112E-PNT domain (domain or fragment, human, UniProt P41212 40-125, looked up, ETV6 PNT domain, human; source: E. coli BL21 (λDE3), purified (Ni-NTA, thrombin cleavage); not shown: His6, N-terminal, cleaved) ALRMEEDSIRLPAHLRLQPIYWSRDDVAQWLKWAENEFSLRPIDSATFEMNGKALLLLTKEDFRYRSPHSGDELYELLQHILKQRK"
8.8 nM,0.0054 s⁻¹,620000 M⁻¹ s⁻¹,"T98A-V112E-PNT domain (domain or fragment, human, UniProt P41212 40-125, looked up, ETV6 PNT domain, human; source: E. coli BL21 (λDE3), purified (Ni-NTA, thrombin cleavage); not shown: His6, N-terminal, cleaved) ALRMEEDSIRLPAHLRLQPIYWSRDDVAQWLKWAENEFSLRPIDSNTFEMNGKALLLLAKEDFRYRSPHSGDELYELLQHILKQRK"
15 nM,0.0054 s⁻¹,360000 M⁻¹ s⁻¹,"R63A-V112E-PNT domain (domain or fragment, human, UniProt P41212 40-125, looked up, ETV6 PNT domain, human; source: E. coli BL21 (λDE3), purified (Ni-NTA, thrombin cleavage); not shown: His6, N-terminal, cleaved) ALRMEEDSIRLPAHLRLQPIYWSADDVAQWLKWAENEFSLRPIDSNTFEMNGKALLLLTKEDFRYRSPHSGDELYELLQHILKQRK"

# From paper PMC7949025, “Biophysical characterization of the ETV6 PNT domain polymerization interfaces” (The Journal of Biological Chemistry, 2021)
